Test results: the Human Domainome abundance scans (Beltran et al. 2025)
± gives the uncertainty stated by the source.

Experiment: abundance fitness (aPCA) (normalised: wild type 0, dead -1); higher = more abundant; growth selection in yeast, the domain comes from the species named
Details: Homo sapiens

For “DnaJ homolog subfamily B member 1 R25H, P25685”, which abundance fitness is on record?
Its abundance fitness is -0.047 ± 0.11.

Which abundance fitness does the source give for “DnaJ homolog subfamily B member 1 R25I, P25685” here?
Its abundance fitness is 0.008 ± 0.13.

For “DnaJ homolog subfamily B member 1 R25K, P25685”, which abundance fitness is on record?
The abundance fitness was -0.022 ± 0.057.

With “DnaJ homolog subfamily B member 1 R25M, P25685” as the substance, how does the abundance fitness read?
Its abundance fitness is -0.078 ± 0.12.

With “DnaJ homolog subfamily B member 1 R25N, P25685” as the substance, how does the abundance fitness read?
Its abundance fitness is -0.144 ± 0.29.

For “DnaJ homolog subfamily B member 1 R25P, P25685”, which abundance fitness is on record?
Its abundance fitness is -0.462 ± 0.12.

Which abundance fitness does the source give for “DnaJ homolog subfamily B member 1 R25S, P25685” here?
The abundance fitness was 0.018 ± 0.076.

Which abundance fitness does the source give for “DnaJ homolog subfamily B member 1 R25T, P25685” here?
The abundance fitness was -0.181 ± 0.11.

For “DnaJ homolog subfamily B member 1 R25V, P25685”, which abundance fitness is on record?
The abundance fitness was 0.003 ± 0.062.

For “DnaJ homolog subfamily B member 1 R25W, P25685”, which abundance fitness is on record?
Its abundance fitness is -0.116 ± 0.092.

For “DnaJ homolog subfamily B member 1 R26A, P25685”, which abundance fitness is on record?
Its abundance fitness is 0.056 ± 0.18.

With “DnaJ homolog subfamily B member 1 R26C, P25685” as the substance, how does the abundance fitness read?
The abundance fitness was 0.064 ± 0.11.

Which abundance fitness does the source give for “DnaJ homolog subfamily B member 1 R26D, P25685” here?
Its abundance fitness is 0.327 ± 0.25.

Which abundance fitness does the source give for “DnaJ homolog subfamily B member 1 R26F, P25685” here?
The abundance fitness was -0.032 ± 0.094.

For “DnaJ homolog subfamily B member 1 R26G, P25685”, which abundance fitness is on record?
The abundance fitness was -0.117 ± 0.094.

For “DnaJ homolog subfamily B member 1 R26H, P25685”, which abundance fitness is on record?
Its abundance fitness is 0.163 ± 0.11.

With “DnaJ homolog subfamily B member 1 R26I, P25685” as the substance, how does the abundance fitness read?
The abundance fitness was 0.071 ± 0.16.

Which abundance fitness does the source give for “DnaJ homolog subfamily B member 1 R26K, P25685” here?
The abundance fitness was 0.052 ± 0.18.

With “DnaJ homolog subfamily B member 1 R26L, P25685” as the substance, how does the abundance fitness read?
The abundance fitness was 0.068 ± 0.075.

With “DnaJ homolog subfamily B member 1 R26M, P25685” as the substance, how does the abundance fitness read?
The abundance fitness was -0.121 ± 0.13.

With “DnaJ homolog subfamily B member 1 R26N, P25685” as the substance, how does the abundance fitness read?
Its abundance fitness is 0.102 ± 0.17.

With “DnaJ homolog subfamily B member 1 R26P, P25685” as the substance, how does the abundance fitness read?
The abundance fitness was -0.628 ± 0.1.

Which abundance fitness does the source give for “DnaJ homolog subfamily B member 1 R26Q, P25685” here?
Its abundance fitness is -0.019 ± 0.22.

Which abundance fitness does the source give for “DnaJ homolog subfamily B member 1 R26S, P25685” here?
Its abundance fitness is 0.064 ± 0.068.

For “DnaJ homolog subfamily B member 1 R26T, P25685”, which abundance fitness is on record?
The abundance fitness was -0.128 ± 0.12.

Which abundance fitness does the source give for “DnaJ homolog subfamily B member 1 R26V, P25685” here?
The abundance fitness was 0.03 ± 0.15.

Which abundance fitness does the source give for “DnaJ homolog subfamily B member 1 R26W, P25685” here?
Its abundance fitness is -0.023 ± 0.081.

Which abundance fitness does the source give for “DnaJ homolog subfamily B member 1 R26Y, P25685” here?
The abundance fitness was -0.344 ± 0.19.

Which abundance fitness does the source give for “DnaJ homolog subfamily B member 1 R30A, P25685” here?
The abundance fitness was 0.033 ± 0.072.

Which abundance fitness does the source give for “DnaJ homolog subfamily B member 1 R30C, P25685” here?
The abundance fitness was 0.042 ± 0.16.

With “DnaJ homolog subfamily B member 1 R30E, P25685” as the substance, how does the abundance fitness read?
The abundance fitness was 0.047 ± 0.24.

For “DnaJ homolog subfamily B member 1 R30F, P25685”, which abundance fitness is on record?
Its abundance fitness is -0.024 ± 0.089.

Which abundance fitness does the source give for “DnaJ homolog subfamily B member 1 R30G, P25685” here?
The abundance fitness was -0.056 ± 0.11.

For “DnaJ homolog subfamily B member 1 R30H, P25685”, which abundance fitness is on record?
Its abundance fitness is -0.125 ± 0.088.

Which abundance fitness does the source give for “DnaJ homolog subfamily B member 1 R30I, P25685” here?
Its abundance fitness is -0.036 ± 0.095.

For “DnaJ homolog subfamily B member 1 R30K, P25685”, which abundance fitness is on record?
Its abundance fitness is -0.086 ± 0.098.

With “DnaJ homolog subfamily B member 1 R30L, P25685” as the substance, how does the abundance fitness read?
The abundance fitness was 0.081 ± 0.067.

For “DnaJ homolog subfamily B member 1 R30M, P25685”, which abundance fitness is on record?
The abundance fitness was 0.104 ± 0.089.

For “DnaJ homolog subfamily B member 1 R30N, P25685”, which abundance fitness is on record?
The abundance fitness was 0.014 ± 0.1.

With “DnaJ homolog subfamily B member 1 R30Q, P25685” as the substance, how does the abundance fitness read?
Its abundance fitness is 0.087 ± 0.11.

Which abundance fitness does the source give for “DnaJ homolog subfamily B member 1 R30S, P25685” here?
The abundance fitness was -0.024 ± 0.073.

For “DnaJ homolog subfamily B member 1 R30T, P25685”, which abundance fitness is on record?
Its abundance fitness is -0.026 ± 0.1.

Which abundance fitness does the source give for “DnaJ homolog subfamily B member 1 R30Y, P25685” here?
Its abundance fitness is 0.131 ± 0.087.

With “DnaJ homolog subfamily B member 1 R59A, P25685” as the substance, how does the abundance fitness read?
The abundance fitness was -0.051 ± 0.086.

For “DnaJ homolog subfamily B member 1 R59C, P25685”, which abundance fitness is on record?
Its abundance fitness is -0.128 ± 0.14.

With “DnaJ homolog subfamily B member 1 R59D, P25685” as the substance, how does the abundance fitness read?
Its abundance fitness is 0.095 ± 0.21.

With “DnaJ homolog subfamily B member 1 R59E, P25685” as the substance, how does the abundance fitness read?
Its abundance fitness is 0.026 ± 0.099.

For “DnaJ homolog subfamily B member 1 R59F, P25685”, which abundance fitness is on record?
Its abundance fitness is -0.045 ± 0.15.

With “DnaJ homolog subfamily B member 1 R59G, P25685” as the substance, how does the abundance fitness read?
The abundance fitness was -0.065 ± 0.084.

Which abundance fitness does the source give for “DnaJ homolog subfamily B member 1 R59H, P25685” here?
Its abundance fitness is -0.167 ± 0.11.

For “DnaJ homolog subfamily B member 1 R59I, P25685”, which abundance fitness is on record?
Its abundance fitness is -0.232 ± 0.15.
